Results on one substance are retold here after patent US20230104578A1, “ANTI-ADRENOMEDULLIN (ADM) ANTIBODY OR ANTI-ADM ANTIBODY FRAGMENT OR ANTI-ADM NON-IG SCAFFOLD FOR USE IN THERAPY OR PREVENTION OF SHOCK” (ADRENOMED AG, priority 2020, published 2023).

Assay [1] addresses human recombinant adrenomedullin receptor (CRLR+RAMP3) (human).
For assay [2] the target is unchanged. The source holds these as a separate data set.

human ADM 22-52 (peptide): the IC50 (read off the curve); cAMP (HTRF) induced by 0.67 nM mADM, % inhibition in assay [1] stood at 3000 nM. In addition, the IC50 (read off the curve); cAMP (HTRF) induced by 5.63 nM hADM, % inhibition in assay [2] is 300 nM.
